The source of these data is paper PMC6817362.

The target in this test is Recombinant mouse SIGN-R1 Fc chimera protein, extracellular domain (mouse) (UniProt Q8CJ91). The experiment in a line: SPR. For orientation: Surface plasmon resonance follows binding to a sensor surface in real time, without labels.
Sequence of UniProt Q8CJ91 (Q8CJ91 74-325, change not shown): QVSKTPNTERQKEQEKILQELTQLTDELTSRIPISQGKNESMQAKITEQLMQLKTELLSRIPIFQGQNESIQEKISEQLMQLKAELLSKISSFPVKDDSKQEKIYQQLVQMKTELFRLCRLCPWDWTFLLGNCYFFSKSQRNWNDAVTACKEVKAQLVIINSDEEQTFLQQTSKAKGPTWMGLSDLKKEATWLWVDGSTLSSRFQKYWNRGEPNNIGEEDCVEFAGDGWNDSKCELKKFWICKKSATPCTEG

The Kd is the equilibrium constant for the complex coming apart. “Hemagglutinin HA from Influenza A H1N1 (A/Puerto Rico/8/34) (from UniProt P03452) (natural protein)”: the Kd turned out to be 0.142 µM.
